# Numbering of substitutions follows the chain as printed.
# B1: unnamed (protein)
# chain: MRPPWYPLHTPSLAFPLLFLLLSLLGGGARAEGREDPQLLVRVRGGQLRGIRLKAPGGPVSAFLGIPFAEPPVGSRRFMPPEPKRPWSGVLDATTFQNVCYQYVDTLYPGFEGTEMWNPNRELSEDCLYLNVWTPYPRPASPTPVLIWIYGGGFYSGAASLDVYDGRFLAQVEGAVLVSMNYRVGTFGFLALPGSREAPGNVGLLDQRLALQWVQENIAAFGGDPMSVTLFGESAGAASVGMHILSLPSRSLFHRAVLQSGTPNGPWATVSAGEARRRATLLARLVGCPPGGAGGNDTELIACLRTRPAQDLVDHEWHVLPQESIFRFSFVPVVDGDFLSDTPEALINTGDFQDLQVLVGVVKDEGSAFLVYGVPGFSKDNESLISRAQFLAGVRIGVPQASDLAAEAVVLHYTDWLHPEDPTHLRDAMSAVVGDHNVVCPVAQLAGRLAAQGARVYAYIFEHRASTLTWPLWMGVPHGYEIEFIFGLPLDPSLNYTTEERIFAQRLMKYWTNFARTGDPNDPRDSKSPQWPPYTTAAQQYVSLNLKPLEVRRGLRAQTCAFWNRFLPKLLSATDTLDEAERQWKAEFHRWSSYMVHWKNQFDHYSKQERCSDL
# B2: unnamed (protein)
# chain: B1 chain with Y103N, Y155Q, W317A, A368Y
# B3: unnamed (protein)
# chain: B1 chain with A368Y
# B4: unnamed (protein)
# chain: B1 chain with F326Y, A368Y
# B5: unnamed (protein)
# chain: B1 chain with F326L, F328I, A368Y
# Substrate: Acetylcholine
# Conditions: pH 7; 22 °C
Protein,Km [µM],kcat [s⁻¹],kcat/Km [M⁻¹ s⁻¹]
B1,110,867,
B2,230,2500,
B3,451000,667,1480
B4,17,102,
B5,200,200,
